Measured values reported in patent US20260001928A1 (CORTERIA PHARMACEUTICALS, priority 2022, published 2026).
Blank lines part the entries; values can stand above or below the binder they belong to. *1 amine or outer side, *2 acyl side, *3 side chain or, on linkers, in order; H or OH if unused. Side-chain parts run from the residue outwards. [ ]: non-standard residue; d: D form. The star is where a group is joined. C20 diacid = O=C(O)CCCCCCCCCCCCCCCCCCC(=O)*; γGlu = O=C(O)[C@H](CCC(=O)[*:2])N[*:1]; Aib = CC(C)(N)C(=O)O

Experiments:
[1] = molecular target: Rat CRF2 a (corticotropin-releasing factor receptor 2), on the A7R5 rat aortic smooth muscle cell line (rat, UniProt P47866 20-411); test: cell-based or functional assay
Sequence of Rat CRF2 a (corticotropin-releasing factor receptor 2), on the A7R5 rat aortic smooth muscle cell line (P47866 20-411): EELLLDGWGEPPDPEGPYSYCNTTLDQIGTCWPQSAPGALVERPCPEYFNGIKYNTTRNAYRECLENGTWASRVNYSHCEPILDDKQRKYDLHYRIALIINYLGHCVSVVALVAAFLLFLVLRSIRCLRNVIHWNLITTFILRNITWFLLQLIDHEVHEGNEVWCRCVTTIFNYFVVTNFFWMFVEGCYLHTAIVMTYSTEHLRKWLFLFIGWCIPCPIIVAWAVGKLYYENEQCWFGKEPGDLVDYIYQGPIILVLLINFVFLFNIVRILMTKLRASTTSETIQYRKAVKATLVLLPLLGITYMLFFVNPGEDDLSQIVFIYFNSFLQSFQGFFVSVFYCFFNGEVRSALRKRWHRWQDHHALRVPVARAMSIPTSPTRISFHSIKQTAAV

[2] = molecular target: T1, CRF1R (corticotropin-releasing factor receptor 1), on the CRF1R-overexpression CHO-K1 cell line clone 2 (UniProt P34998 24-415, limits assumed); test: cell-based or functional assay
T1 sequence (looked up): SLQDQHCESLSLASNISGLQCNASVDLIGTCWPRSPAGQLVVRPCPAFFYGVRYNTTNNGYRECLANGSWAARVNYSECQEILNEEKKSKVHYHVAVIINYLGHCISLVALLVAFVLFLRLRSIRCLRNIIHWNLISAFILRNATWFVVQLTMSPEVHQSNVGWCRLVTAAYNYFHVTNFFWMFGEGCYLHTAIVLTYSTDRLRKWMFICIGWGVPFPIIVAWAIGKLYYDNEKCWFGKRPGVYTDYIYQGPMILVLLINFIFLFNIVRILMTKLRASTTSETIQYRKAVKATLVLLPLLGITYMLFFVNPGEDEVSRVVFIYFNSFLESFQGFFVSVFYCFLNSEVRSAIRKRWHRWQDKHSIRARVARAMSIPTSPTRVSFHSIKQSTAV

EC50 [nM] 0% HSA (cAMP, A7R5 rat aortic smooth muscle cells) [1]: 0.09 nM | EC50 [nM] (cAMP, CRF1R-overexpression CHO-K1 cells) [2]: > 250 nM | Emax (% I) (cAMP, 100% = Sauvagine at 100 nM) [2]: 8 % I
B1: peptide of SEQ ID NO: 243 (peptide)
peptide: Ac-IVLSLD[dV]PIKLK([γGlu-γGlu-C20 diacid])KILLEQEKQKKQREQAETN[Aib]QILAQV-NH2
SMILES: CC[C@H](C)[C@H](NC(C)=O)C(=O)N[C@H](C(=O)N[C@@H](CC(C)C)C(=O)N[C@@H](CO)C(=O)N[C@@H](CC(C)C)C(=O)N[C@@H](CC(=O)O)C(=O)N[C@@H](C(=O)N1CCC[C@H]1C(=O)N[C@H](C(=O)N[C@@H](CCCCN)C(=O)N[C@@H](CC(C)C)C(=O)N[C@@H](CCCCNC(=O)CC[C@H](NC(=O)CC[C@H](NC(=O)CCCCCCCCCCCCCCCCCCC(=O)O)C(=O)O)C(=O)O)C(=O)N[C@@H](CCCCN)C(=O)N[C@H](C(=O)N[C@@H](CC(C)C)C(=O)N[C@@H](CC(C)C)C(=O)N[C@@H](CCC(=O)O)C(=O)N[C@@H](CCC(N)=O)C(=O)N[C@@H](CCC(=O)O)C(=O)N[C@@H](CCCCN)C(=O)N[C@@H](CCC(N)=O)C(=O)N[C@@H](CCCCN)C(=O)N[C@@H](CCCCN)C(=O)N[C@@H](CCC(N)=O)C(=O)N[C@@H](CCCNC(=N)N)C(=O)N[C@@H](CCC(=O)O)C(=O)N[C@@H](CCC(N)=O)C(=O)N[C@@H](C)C(=O)N[C@@H](CCC(=O)O)C(=O)N[C@H](C(=O)N[C@@H](CC(N)=O)C(=O)NC(C)(C)C(=O)N[C@@H](CCC(N)=O)C(=O)N[C@H](C(=O)N[C@@H](CC(C)C)C(=O)N[C@@H](C)C(=O)N[C@@H](CCC(N)=O)C(=O)N[C@H](C(N)=O)C(C)C)[C@@H](C)CC)[C@@H](C)O)[C@@H](C)CC)[C@@H](C)CC)C(C)C)C(C)C

EC50 [nM] 0% HSA (cAMP, A7R5 rat aortic smooth muscle cells) [1]: 1.77 nM | EC50 [nM] (cAMP, CRF1R-overexpression CHO-K1 cells) [2]: > 250 nM | Emax (% I) (cAMP, 100% = Sauvagine at 100 nM) [2]: 8 % I
B2: peptide of SEQ ID NO: 244 (peptide)
peptide: Ac-IVLSLD[dV]PIKLK([γGlu-γGlu-C20 diacid])KILLEQEKQKAQREQAETN[Aib]QILAQV-NH2
SMILES: CC[C@H](C)[C@H](NC(C)=O)C(=O)N[C@H](C(=O)N[C@@H](CC(C)C)C(=O)N[C@@H](CO)C(=O)N[C@@H](CC(C)C)C(=O)N[C@@H](CC(=O)O)C(=O)N[C@@H](C(=O)N1CCC[C@H]1C(=O)N[C@H](C(=O)N[C@@H](CCCCN)C(=O)N[C@@H](CC(C)C)C(=O)N[C@@H](CCCCNC(=O)CC[C@H](NC(=O)CC[C@H](NC(=O)CCCCCCCCCCCCCCCCCCC(=O)O)C(=O)O)C(=O)O)C(=O)N[C@@H](CCCCN)C(=O)N[C@H](C(=O)N[C@@H](CC(C)C)C(=O)N[C@@H](CC(C)C)C(=O)N[C@@H](CCC(=O)O)C(=O)N[C@@H](CCC(N)=O)C(=O)N[C@@H](CCC(=O)O)C(=O)N[C@@H](CCCCN)C(=O)N[C@@H](CCC(N)=O)C(=O)N[C@@H](CCCCN)C(=O)N[C@@H](C)C(=O)N[C@@H](CCC(N)=O)C(=O)N[C@@H](CCCNC(=N)N)C(=O)N[C@@H](CCC(=O)O)C(=O)N[C@@H](CCC(N)=O)C(=O)N[C@@H](C)C(=O)N[C@@H](CCC(=O)O)C(=O)N[C@H](C(=O)N[C@@H](CC(N)=O)C(=O)NC(C)(C)C(=O)N[C@@H](CCC(N)=O)C(=O)N[C@H](C(=O)N[C@@H](CC(C)C)C(=O)N[C@@H](C)C(=O)N[C@@H](CCC(N)=O)C(=O)N[C@H](C(N)=O)C(C)C)[C@@H](C)CC)[C@@H](C)O)[C@@H](C)CC)[C@@H](C)CC)C(C)C)C(C)C
